Here are results for 8 substances from patent US5888732.

Data set [1] has as its target Lambda integrase (Int) + excisionase (Xis) + IHF (UniProt P03700+P03699+P0A6X7+P0A6Y1). The experiment in a line: cell_activity.
Data set [2] deals with Lambda integrase (Int) + IHF. The experiment in a line: cleavage_in_vitro. As to conditions: agarose gel; 50 mM Tris pH 7.8, 70 mM KCl, 5 mM spermidine, 25 C 45 min.
Data set [3] deals with Cre recombinase (bacteriophage P1) (UniProt P06956). The experiment in a line: cell_activity. The following applies: 140 without Cre.
Sequence of UniProt P06956 (P06956 whole entry): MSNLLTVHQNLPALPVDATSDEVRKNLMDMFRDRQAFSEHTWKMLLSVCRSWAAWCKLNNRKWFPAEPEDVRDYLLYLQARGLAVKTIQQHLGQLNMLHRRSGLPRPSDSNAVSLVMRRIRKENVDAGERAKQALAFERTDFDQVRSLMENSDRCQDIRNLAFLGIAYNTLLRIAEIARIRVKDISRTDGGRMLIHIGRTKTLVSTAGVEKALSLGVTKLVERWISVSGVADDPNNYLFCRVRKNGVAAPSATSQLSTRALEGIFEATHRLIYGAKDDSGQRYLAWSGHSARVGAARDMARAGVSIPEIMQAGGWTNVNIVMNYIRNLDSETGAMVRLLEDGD

Sequence of UniProt P03700 (P03700 whole entry, chain 1 of 4): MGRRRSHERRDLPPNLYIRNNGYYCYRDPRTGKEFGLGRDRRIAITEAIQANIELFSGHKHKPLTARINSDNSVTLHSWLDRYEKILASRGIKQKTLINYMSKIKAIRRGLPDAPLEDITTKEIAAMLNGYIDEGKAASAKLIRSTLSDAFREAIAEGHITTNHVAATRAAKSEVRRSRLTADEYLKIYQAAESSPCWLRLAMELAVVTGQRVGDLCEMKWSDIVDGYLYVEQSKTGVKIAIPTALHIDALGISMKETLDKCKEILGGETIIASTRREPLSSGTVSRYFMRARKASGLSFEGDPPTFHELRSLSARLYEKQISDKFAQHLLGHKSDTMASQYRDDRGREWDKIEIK
Sequence of UniProt P03700 (P03699 whole entry, chain 2 of 4): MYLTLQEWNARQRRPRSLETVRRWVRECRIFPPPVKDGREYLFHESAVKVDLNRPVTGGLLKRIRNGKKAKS
Sequence of UniProt P03700 (P0A6X7 2-99, chain 3 of 4): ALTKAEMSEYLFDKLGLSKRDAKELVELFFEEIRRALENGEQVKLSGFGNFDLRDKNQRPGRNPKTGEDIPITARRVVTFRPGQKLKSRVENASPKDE
Sequence of UniProt P03700 (P0A6Y1 whole entry, chain 4 of 4): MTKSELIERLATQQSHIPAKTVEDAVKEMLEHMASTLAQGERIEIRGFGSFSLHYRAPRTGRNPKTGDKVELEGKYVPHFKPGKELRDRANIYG

As to “attRwt (lacking P1 and H1; pEZC1301) ; attLwt (pEZC1313)”, in data set [1] (in vitro recombination with Cre on loxP as second site, background 1), the activity (kanamycin resistant colonies) was determined as 147.

On to “attRwt (lacking P1 and H1; pEZC1301) ; attL2 (pEZC1321)”, for which the activity (kanamycin resistant colonies) in data set [1] (with Cre/loxP, background 1) is 0.

Take “attB wild type (pEZC705) ; attP wild type (pEZC726)”: in data set [2], the activity (% of total DNA converted to cointegrate) was found to be 5.

As for “attRwt (lacking P1 and H1; pEZC1301) ; attL1 (pEZC1317)”, the activity (kanamycin resistant colonies) in data set [1] (with Cre/loxP, background 1) is 47.

In the case of attR1 (pEZC1305) ; attLwt (pEZC1313), in data set [1] (with Cre/loxP, background 1), the activity (kanamycin resistant colonies) worked out at 4.

On to loxP 511, for which the activity (kanamycin resistant colonies) in data set [3] (same reaction as loxP, both sites required for product) turned out to be 760.

As to loxP wild type, the activity (kanamycin resistant colonies) in data set [3] (pEZC602 x pEZC629 via loxP and loxP 511, 37 C, 33 mM NaCl) is 760.

Take attR2 (pEZC1309) ; attLwt (pEZC1313): the activity (kanamycin resistant colonies) in data set [1] (with Cre/loxP, background 9) was determined as 0.
